Square brackets hold non-standard residues; d marks the D form. Side chains are listed from the residue outwards. Ends that are not written are not given here. Phe(2-F) = N[C@@H](Cc1ccccc1F)C(=O)O; NMeY = CN[C@@H](Cc1ccc(O)cc1)C(=O)O; αMeF = C[C@](N)(Cc1ccccc1)C(=O)O; Iva = CC[C@](C)(N)C(=O)O; Oda = not defined here; Aib = CC(C)(N)C(=O)O
B1: Me-Tyr-Aib-Glu-Gly-Thr-αMePhe-Thr-Ser-Asp-Lys(-Gly-Gly-Gly-Gly-Oda)-Aib-Ile-Aib-Leu-Asp-Lys-Gln-Arg-Gln-Iva-Glu-Phe-Val-Arg-His-Leu-Leu-Asn-Lys-Aib-Thr-Arg-Gln- … (peptide)
peptide: Me-Y[Aib]EGT[αMeF]TSDK([Gly-Gly-Gly-Gly-Oda])[Aib]I[Aib]LDKQRQ[Iva]EFVRHLLNK[Aib]TRQRY-NH2
modifications: reading uncertain; also: printed as Me-Tyr-Aib-Glu-Gly-Thr-αMePhe-Thr-Ser-Asp-Lys(-Gly-Gly-Gly-Gly-Oda)-Aib-Ile-Aib-Leu-Asp-Lys-Gln-Arg-Gln-Iva-Glu-Phe-Val-Arg-His-Leu-Leu-Asn-Lys-Aib-Thr-Arg-Gln-Arg-Tyr-NH2
B2: Me-Tyr-Aib-Glu-Gly-Thr-αMePhe-Thr-Ser-Asp-Lys(-Gly-Gly-Gly-Gly-Oda)-Aib-Ile-Aib-Leu-Glu-Lys-Gln-Arg-Gln-Iva-Glu-Phe-Val-Arg-His-Leu-Leu-Asn-Lys-Aib-Thr-Arg-Gln- … (peptide)
peptide: Me-Y[Aib]EGT[αMeF]TSDK([Gly-Gly-Gly-Gly-Oda])[Aib]I[Aib]LEKQRQ[Iva]EFVRHLLNK[Aib]TRQRY-NH2
modifications: reading uncertain; also: printed as Me-Tyr-Aib-Glu-Gly-Thr-αMePhe-Thr-Ser-Asp-Lys(-Gly-Gly-Gly-Gly-Oda)-Aib-Ile-Aib-Leu-Glu-Lys-Gln-Arg-Gln-Iva-Glu-Phe-Val-Arg-His-Leu-Leu-Asn-Lys-Aib-Thr-Arg-Gln-Arg-Tyr-NH2
B3: H-Tyr-Aib-Glu-Gly-Thr-αMePhe-Thr-Ser-Asp-Lys(-Gly-Gly-Gly-Gly-Oda)-Ser-Ile-Aib-Leu-Glu-Lys-Gln-Arg-Gln-Iva-Glu-Phe-Val-Arg-His-Leu-Leu-Asn-Lys-Aib-Thr-Arg-Gln-A … (peptide)
peptide: H-Y[Aib]EGT[αMeF]TSDK([Gly-Gly-Gly-Gly-Oda])SI[Aib]LEKQRQ[Iva]EFVRHLLNK[Aib]TRQRY-NH2
modifications: reading uncertain; also: printed as H-Tyr-Aib-Glu-Gly-Thr-αMePhe-Thr-Ser-Asp-Lys(-Gly-Gly-Gly-Gly-Oda)-Ser-Ile-Aib-Leu-Glu-Lys-Gln-Arg-Gln-Iva-Glu-Phe-Val-Arg-His-Leu-Leu-Asn-Lys-Aib-Thr-Arg-Gln-Arg-Tyr-NH2
B4: Me-Tyr-Aib-Glu-Gly-Thr-αMePhe-Thr-Ser-Asp-Lys(-Gly-Gly-Gly-Gly-Oda)-Ser-Ile-Aib-Leu-Glu-Lys-Gln-Arg-Gln-Iva-Glu-Phe-Val-Arg-His-Leu-Leu-Asn-Lys-Aib-Thr-Arg-Gln- … (peptide)
peptide: Me-Y[Aib]EGT[αMeF]TSDK([Gly-Gly-Gly-Gly-Oda])SI[Aib]LEKQRQ[Iva]EFVRHLLNK[Aib]TRQRY-NH2
modifications: reading uncertain; also: printed as Me-Tyr-Aib-Glu-Gly-Thr-αMePhe-Thr-Ser-Asp-Lys(-Gly-Gly-Gly-Gly-Oda)-Ser-Ile-Aib-Leu-Glu-Lys-Gln-Arg-Gln-Iva-Glu-Phe-Val-Arg-His-Leu-Leu-Asn-Lys-Aib-Thr-Arg-Gln-Arg-Tyr-NH2
B5: H-Tyr-Aib-Glu-Gly-Thr-αMePhe-Thr-Ser-Asp-Lys(-Gly-Gly-Gly-Gly-Oda)-Aib-Ile-Aib-Leu-Asp-Lys-Gln-Arg-Gln-Iva-Glu-Phe-Val-Arg-His-Leu-Leu-Asn-Lys-Aib-Thr-Arg-Gln-A … (peptide)
peptide: H-Y[Aib]EGT[αMeF]TSDK([Gly-Gly-Gly-Gly-Oda])[Aib]I[Aib]LDKQRQ[Iva]EFVRHLLNK[Aib]TRQRY-NH2
modifications: reading uncertain; also: printed as H-Tyr-Aib-Glu-Gly-Thr-αMePhe-Thr-Ser-Asp-Lys(-Gly-Gly-Gly-Gly-Oda)-Aib-Ile-Aib-Leu-Asp-Lys-Gln-Arg-Gln-Iva-Glu-Phe-Val-Arg-His-Leu-Leu-Asn-Lys-Aib-Thr-Arg-Gln-Arg-Tyr-NH2
B6: Me-Tyr-Aib-Glu-Gly-Thr-αMePhe-Thr-Ser-Asp-Lys(-Gly-Gly-Gly-Gly-Oda)-Ala-Ile-Aib-Leu-Glu-Lys-Gln-Arg-Gln-Iva-Glu-Phe-Val-Arg-His-Leu-Leu-Asn-Lys-Aib-Thr-Arg-Gln- … (peptide)
peptide: [NMeY][Aib]EGT[αMeF]TSDK([Gly-Gly-Gly-Gly-Oda])AI[Aib]LEKQRQ[Iva]EFVRHLLNK[Aib]TRQRY-NH2
modifications: reading uncertain; also: printed as Me-Tyr-Aib-Glu-Gly-Thr-αMePhe-Thr-Ser-Asp-Lys(-Gly-Gly-Gly-Gly-Oda)-Ala-Ile-Aib-Leu-Glu-Lys-Gln-Arg-Gln-Iva-Glu-Phe-Val-Arg-His-Leu-Leu-Asn-Lys-Aib-Thr-Arg-Gln-Arg-Tyr-NH2
B7: H-Tyr-Aib-Glu-Gly-Thr-αMePhe-Thr-Ser-Asp-Lys(-Gly-Gly-Gly-Gly-Oda)-Ala-Ile-Aib-Leu-Glu-Lys-Gln-Arg-Gln-Iva-Glu-Phe-Val-Arg-His-Leu-Leu-Asn-Lys-Aib-Thr-Arg-Gln-A … (peptide)
peptide: H-Y[Aib]EGT[αMeF]TSDK([Gly-Gly-Gly-Gly-Oda])AI[Aib]LEKQRQ[Iva]EFVRHLLNK[Aib]TRQRY-NH2
modifications: reading uncertain; also: printed as H-Tyr-Aib-Glu-Gly-Thr-αMePhe-Thr-Ser-Asp-Lys(-Gly-Gly-Gly-Gly-Oda)-Ala-Ile-Aib-Leu-Glu-Lys-Gln-Arg-Gln-Iva-Glu-Phe-Val-Arg-His-Leu-Leu-Asn-Lys-Aib-Thr-Arg-Gln-Arg-Tyr-NH2
B8: Me-Tyr-Aib-Glu-Gly-Thr-αMePhe-Thr-Ser-Asp-Lys(-Gly-Gly-Gly-Gly-Oda)-Aib-Ile-Aib-Leu-Asp-Lys-Gln-Arg-Gln-Iva-Glu-Phe-Val-Arg-His-Leu-Leu-Asn-Lys-Aib-Thr-Arg-Gln- … (peptide)
peptide: Me-Y[Aib]EGT[αMeF]TSDK([Gly-Gly-Gly-Gly-Oda])[Aib]I[Aib]LDKQRQ[Iva]EFVRHLLNK[Aib]TRQR[Phe(2-F)]-NH2
modifications: reading uncertain; also: printed as Me-Tyr-Aib-Glu-Gly-Thr-αMePhe-Thr-Ser-Asp-Lys(-Gly-Gly-Gly-Gly-Oda)-Aib-Ile-Aib-Leu-Asp-Lys-Gln-Arg-Gln-Iva-Glu-Phe-Val-Arg-His-Leu-Leu-Asn-Lys-Aib-Thr-Arg-Gln-Arg-Phe(2-F)-NH2
B9: H-Tyr-Aib-Glu-Gly-Thr-αMePhe-Thr-Ser-Asp-Lys(-Gly-Gly-Gly-Gly-Oda)-Aib-Ile-Aib-Leu-Asp-Lys-Gln-Arg-Gln-Iva-Glu-Phe-Val-Arg-His-Leu-Leu-Asn-Lys-Aib-Thr-Arg-Gln-A … (peptide)
peptide: H-Y[Aib]EGT[αMeF]TSDK([Gly-Gly-Gly-Gly-Oda])[Aib]I[Aib]LDKQRQ[Iva]EFVRHLLNK[Aib]TRQR[Phe(2-F)]-NH2
modifications: reading uncertain; also: printed as H-Tyr-Aib-Glu-Gly-Thr-αMePhe-Thr-Ser-Asp-Lys(-Gly-Gly-Gly-Gly-Oda)-Aib-Ile-Aib-Leu-Asp-Lys-Gln-Arg-Gln-Iva-Glu-Phe-Val-Arg-His-Leu-Leu-Asn-Lys-Aib-Thr-Arg-Gln-Arg-Phe(2-F)-NH2

Experiments:
Assay in all cases: cell-based or functional assay
human GLP-1R = human GLP-1R (human, UniProt P43220 24-463)
human NPY2R = molecular target: T1, human NPY2R (human, UniProt P49146 1-381)
T1 sequence (looked up): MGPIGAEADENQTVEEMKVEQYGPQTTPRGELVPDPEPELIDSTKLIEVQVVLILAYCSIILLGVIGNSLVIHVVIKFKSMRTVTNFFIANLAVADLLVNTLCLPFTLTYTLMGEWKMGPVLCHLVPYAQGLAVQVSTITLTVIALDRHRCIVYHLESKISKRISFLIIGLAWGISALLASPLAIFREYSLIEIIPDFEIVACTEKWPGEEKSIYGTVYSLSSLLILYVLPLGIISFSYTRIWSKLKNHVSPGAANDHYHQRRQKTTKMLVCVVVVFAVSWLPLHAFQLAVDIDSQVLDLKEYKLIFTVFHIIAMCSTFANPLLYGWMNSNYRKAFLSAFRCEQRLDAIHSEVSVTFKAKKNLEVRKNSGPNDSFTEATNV

human GIPR = molecular target: T2, human GIPR (human, UniProt P48546 22-466)
T2 sequence (looked up): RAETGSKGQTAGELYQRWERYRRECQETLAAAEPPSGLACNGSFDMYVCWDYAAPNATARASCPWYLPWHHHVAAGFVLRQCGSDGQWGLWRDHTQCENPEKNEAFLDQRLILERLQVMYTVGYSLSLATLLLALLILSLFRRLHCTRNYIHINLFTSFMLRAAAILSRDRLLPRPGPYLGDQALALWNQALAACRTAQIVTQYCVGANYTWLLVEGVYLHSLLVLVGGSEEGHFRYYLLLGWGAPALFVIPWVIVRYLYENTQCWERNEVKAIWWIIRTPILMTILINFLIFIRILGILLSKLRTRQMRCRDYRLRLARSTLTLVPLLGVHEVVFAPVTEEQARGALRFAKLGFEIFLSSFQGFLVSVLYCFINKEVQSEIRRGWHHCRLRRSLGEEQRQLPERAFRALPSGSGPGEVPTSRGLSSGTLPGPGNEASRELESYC

Binder | Agonist activity (EC50), Cre-luc reporter assay (human GLP-1R) [nM] | Agonist activity (EC50), Cre-luc reporter assay (human NPY2R) [nM] | Agonist activity (EC50), Cre-luc reporter assay (human GIPR) [nM]
H-Y[Aib]EGT[αMeF]TSDK([Gly-Gly-Gly-Gly-Pal])SI[Aib]LEKQRQ[Iva]EFVRHLLNK[Aib]TRQRY-NH2 | 0.053 | 0.041 | 0.041
B1 | 1.4 | 2 | 0.25
H-Y[Aib]EGT[αMeF]TSDK([Gly-Gly-Gly-Gly-Pal])AI[Aib]LEKQRQ[Iva]EFVRHLLNK[Aib]TRQRY-NH2 | 0.045 | 0.023 | 0.042
B2 | 1.1 | 1.5 | 0.53
B3 | 0.24 | 1.6 | 0.17
B4 | 1.3 | 2.6 | 0.25
B5 | 0.32 | 2.1 | 0.22
H-Y[Aib]EGT[αMeF]TSDK([Gly-Gly-Gly-Gly-Pal])[Aib]I[Aib]LDKQAQ[Iva]EFVRHLLNK[Aib]TRQR[Phe(2-F)]-NH2 | 0.014 | 0.031 | 0.035
Me-Y[Aib]EGT[αMeF]TSDK([Gly-Gly-Gly-Gly-Pal])[Aib]I[Aib]LDKQRQ[Iva]EFVRHLLNK[Aib]TRQRY-NH2 | 0.083 | 0.1 | 0.068
B6 | 2.3 | 1.7 | 0.4
Me-Y[Aib]EGT[αMeF]TSDK([Gly-Gly-Gly-Gly-Pal])SI[Aib]LEKQRQ[Iva]EFVRHLLNK[Aib]TRQRY-NH2 | 0.048 | 0.049 | 0.052
B7 | 0.53 | 1.1 | 0.36
Me-Y[Aib]EGT[αMeF]TSDK([Gly-Gly-Gly-Gly-Pal])AI[Aib]LEKQRQ[Iva]EFVRHLLNK[Aib]TRQRY-NH2 | 0.036 | 0.026 | 0.04
B8 | 1.5 | 1 | 0.29
B9 | 0.61 | 1.3 | 0.41
Me-Y[Aib]EGT[αMeF]TSDK([Gly-Gly-Gly-Gly-Pal])[Aib]I[Aib]LDKQRQ[Iva]EFVRHLLNK[Aib]TRQR[Phe(2-F)]-NH2 | 0.13 | 0.12 | 0.093
H-Y[Aib]EGT[αMeF]TSDK([Gly-Gly-Gly-Gly-Pal])[Aib]I[Aib]LDKQRQ[Iva]EFVRHLLNK[Aib]TRQRY-NH2 | 0.082 | 0.1 | 0.068
